{"source": "the DeepSol protein solubility set", "data": [{"test": "soluble on expression in E. coli; label from the status in PepcDB or PDB records", "values": [{"sequence": "MAEVPHHNIPAVDMLNATSRLQLEAQELRNNKPNWGSYFRSQMIQEDDYNFITSFENAKSKEERDQVLAANNANGQAAKTMANLITQVAKDQNVRYVLTLFDDMLQEDKSRVELFHSAAARQKRTVWSQYLGILQRQDNFIVNQMSSIIAKLACFGTTRMEGQDLQYYFSFLKEQLKNSTTNDYMNTTARCLQMMLRHDEYRHEFVDSDGVQTLVTALNGKTNFQLQYQLIFAVWCLTFNADIARKAPSLGLIQALGDILSESTKEKVIRIILASFVNILSKVDEREVKREAALQMVQCKTLKTLELMDAKKYDDPDLEDDVKFLTEELTLSVHDLSSYDEYYSEVRSGRLQWSPVHKSEKFWRENASKFNDKQFEVVKILIKLLESSHDPLILCVASHDIGEYVRHYPRGKTVVEQYQGKAAVMRLLTAEDPNVRYHALLAVQKLMVHNWEYLGKQLDSDVQTDTVAVK", "soluble on expression in E. coli": "not soluble"}, {"sequence": "MAEWNRAKRKRKTIEIQYTGLASNSTLKVTKVTGKHLESMGIPGKFGYEVYPEEAVYLMETGSATISTSSGRDLSLLEAFSILEAMSVPMSKYEAYKHVKRTGLVVLRPRKPTIDFERLRHVEPKIRQKFAEKSFEMLVNRHTVPEERVPNPDSFPSFENRNGQISMKMKVLHTSPALVNFLPLEMLESIQTSTILQNLKPPTPNRPPCRPPSYWPFVDHHVTNWQEFRFQAEQARQETVLRRLKKLRPPSHAELRRERITVENVDFHVFSPASFSHRLPARPLFSLICYSATGPPLKISELAELENVVFAMEEAGKVNFVAMSGASIDLNNYLC", "soluble on expression in E. coli": "not soluble"}, {"sequence": "MAFEATKREWCELYTFFRLLTEGKVTLGTAKAKKGEIDWPIAMIQREEHDGTRCYYIEKEMVRIKGENSEKFVPREDFGIVADLILQAVKSSSEDEVTSPDGVEEFLDEVAIFDLEAKTEDRTDFYIAFWHPEAPLSGFSVRSRLGAMNPLLDGGRAANLKLEQSGVKFATPTVNKINALPEAPNEVAERMLLIERLGGVLKYSDVADRVFRSNLLMIDLHFPRVLTEMVRIMHLDDITRISELTEVIKQMNPLKIKDELVNKHGFYEFKVKQFLMALALGMRPAKIYTGQDSAVEGILLMDGSGEVLCYHKSEKPVMEDFLFLNTRLEKGSLDKDKYGFLERENGTYYFKLNAKIGLVKR", "soluble on expression in E. coli": "not soluble"}, {"sequence": "MAFICPEEIEAYAEEHSSELHPILEELVEFTYKNTDLPQMMVGRAEGNFLKMLVEISGAKRVLEIGTFTGFSALMMAQGLPEDGKLTTIEVNPEYAQMAKSFIERAPWGKKIEVIVGDARKVLEEFKKESFDFIFIDADKSSYPYYYEKCLELLKKGRLMAIDNALWEGKVLEPDDNRSKAIARMNEMIKEDPRVEKVLLTVRDGIFLVRKI", "soluble on expression in E. coli": "soluble"}, {"sequence": "MAFVLDASTAVAWCFDEHHPAADRTLELAKVSEPRAPAILWFELRNAALMGIRRGRVKAEAADGVLARIERIRISIAPLPPAADPIFALAQRHRLTFYDAAYLELAQRERIGLATLDAALVGA", "soluble on expression in E. coli": "not soluble"}, {"sequence": "MAFWQSKTLTEMTSQEWESLCDGCGKCCLNKLIDDETEELYYTNAACLLLDHQTTSCQHYSDRFRYVPQCTVITAQNVHELTWLPDSCAYRRLAAGRALPSWHPLLTGSKDAMHLAGMSIQGKVVDERRVKDIEDHIVLWPLKDLD", "soluble on expression in E. coli": "soluble"}, {"sequence": "MAFYNSIPLIGKHLKSESRAKKYTSEEFKRLEREYRDHIGLPENSSFSSDAFDKLVSSRVDDFRAFPKTNLPGGLLFHDKLKEANTTEGDNIRDVLSKTVLAPTEKFKTAQKNFTESTSTFKELTKLIPSKFRAQDLVGTMKELTDDARKAIIEQQAHEIQMLKEKLDPQKEGQAGNYVSDFKKALGLKDNDEVKKVTEGLIKELEETHKKQLGEFDKSTSDSLNQLHKASASESSEYLFLANLYENNKEMRQTLEKLYAKERQRKGLPPESTTVQVGISENKIDLNGIKLKDIPVIKSITGREIHQQPDGSFAIQMPMINPFYYQDPRQNVKTDMMLIAQAIKASGYDSIEMNCNFPNSEKVAMERGRQAFAACIEAGFPVDKITINVNGKPMKADELFKEHPKTYQDIMSRASKISKDYEDIKAPKTSTAPVNTVVVKQEIAALRTKQQQEERAQTQPVDEQRHGVTPNNLEHHHHHH", "soluble on expression in E. coli": "not soluble"}, {"sequence": "MAGDPMADQEANAEQPMPKAEQKKPEKKAVQVQKKEDDTSAWIKTEKPAKLPILMYHSISSGNSLRVPKKEFEAHMKWLHDNGYQTLTPKEASLMLTQDKKPSEKCVLITFDDGYTDNYQDAYPVLKKYGMKATIFMIGKSIGHKHHLTEEQMKEMAQHGISIESHTIDHLELNGLTPQQQQSEMADSKKLFDNMFHQQTTIISYPVGRYNEETLKAAEKTGYQMGVTTEPGAASRDQGMYALHRVRVSPGMSGSAFGAYIESMKLEHHHHHH", "soluble on expression in E. coli": "soluble"}, {"sequence": "MAGDPMFKLKINNFQLGFKLVQWPVTNHLLKHFYVFPINNKGGLAIKRIISLALFKKRLNKDKINNCHVWEEELPDGSYDMGFNGNFNHMEKRKSGYVTQKQFSEFKDANNQRLIKIETTLAIQGEQINKLTQTVEKQGEQINQLVQVVLLQGASKLENFKWSKKHKDKSLMPAWIVWKIFWWKVLEHHHHHH", "soluble on expression in E. coli": "not soluble"}, {"sequence": "MAGDPMGNSSTKGSADSKGDKLHVVTTFYPMYEFTKQIVKDKGDVDLLIPSSVEPHDWEPTPKDIANIQDADLFVYNSEYMETWVPSAEKSMGQGHAVFVNASKGIDLMEGSEEEHEEHDHGEHEHSHAMDPHVWLSPVLAQKEVKNITAQIVKQDPDNKEYYEKNSKEYIAKLQDLDKLYRTTAKKAEKKEFITQHTAFGYLAKEYGLKQVPIAGLSPDQEPSAASLAKLKTYAKEHNVKVIYFEEIASSKVADTLASEIGAKTEVLNTLEGLSKEEQDKGLGYIDIMKQNLDALKDSLLVKSLEHHHHHH", "soluble on expression in E. coli": "soluble"}, {"sequence": "MAGDPMKSSQYPAQDLKRRVLAWAVKLKVNPRAVRVQDMHRKWGSCSSTGTITLASDLLDQEQRFQDYVIVHELLHLRFATHGRMFKALMSAYVPGWRAMEGMGQHRICRKYRSTRSTVLEHHHHHH", "soluble on expression in E. coli": "not soluble"}, {"sequence": "MAGDPMPTLFDDPLHQLPRPPRRVAAGVVHLPNFLGLAEQKALVAQARDLAREVVGTPLAMVRPKLKSGQMSVHMLHLGKYWASNPYRYVDVVDGFPVPPLPDSFVDLAHRALLSAGSLSNSLQSWSEAYRAEAALVNYYSPDASMGMHQDANEESEAPVISLSIGDTGIFRLGGTLNRNKPWTDIPLMSGDLIVFGGANRQAFHGIPSIEANTAPAGCGLKEGRINITIRQLALAAALEHHHHHH", "soluble on expression in E. coli": "soluble"}, {"sequence": "MAGDPMVMRLSKIYGKQIYTTKGKYVGYVDEVIIDIDEGRGEVVLLALPGERVGVPYERVTAVGDIILVEATTEKKRISQEGLEHHHHHH", "soluble on expression in E. coli": "not soluble"}, {"sequence": "MAGDPNSMMIARTLSIFIGTLLLATCSIPTRLNIPTIAITDHPKYKLLLILIDGLRADALEHGQAPQLARLASDGVHARWMTPSYPALTLPNAYTLITGLRPDHHGIVHNTMEDPLLGAFESERQEAISNGRWWGGEPIWVSAEHAGIRSATFLWPGSEASIAGTRPSRWYAYNKHISADTQITQALRWLNERGPDAPRLVILRFEQVNTAGDNFGPDSPQYAAAVNMIDSAIGRLIDSLRQHGKLTDTDVIVVSDQGIAPIPGDHAVPLERIVQLSDVHVVSDGQVLGITPLPGHESKVEAMVLGAHATYDCWRKQALPTHWHYGTHPRIPNIVCQMHEGWNALSAAQITKRNPLQMGGSSGFDPMLPSMRAVFLANGPSFMPNLLLNPINNVDIYPLLARLLGIAMAPNDGNPRALLQALRTSNTANGYTYSKRNALHLEHHHHHH", "soluble on expression in E. coli": "not soluble"}, {"sequence": "MAGENIIIDLNFAVSANPREVWDVLTDFDRMADFVSNLKESKVVSISEDKFTIFQNGTATYGPIRYPFESIREVRLIPYHKILTHLVSGNMHKLDGTTYLTDETGGTRVVHRTEAIPKVWIPAVVGKVFIEHEVREQFNEMRNEIIRRKRAALKKGHEKQDGRLEHHHHHH", "soluble on expression in E. coli": "soluble"}, {"sequence": "MAGGGAGDPGLGAAAAPAPETREHLFKVLVIGELGVGKTSIIKRYVHQLFSQHYRATIGVDFALKVLNWDSRTLVRLQLWDIAGQERFGNMTRVYYKEAVGAFVVFDISRSSTFEAVLKWKSDLDSKVHLPNGSPIPAVLLANKCDQNKDSSQSPSQVDQFCKEHGFAGWFETSAKDNINIEEAARFLVEKILVNHQSFPNEENDVDKIKLDQETLRAENKSQCCLEHHHHHH", "soluble on expression in E. coli": "not soluble"}, {"sequence": "MAGGLIRGKLIAIIGDEDTVTGFLLGGIGELNKNRKPNFLVVEKETSVTEIEETFRSFLNRDDIGIILINQFIAEMIRHAIDAHTISIPAVLEIPSKEHPYDATKDSILRRAKGMFTVDDLR", "soluble on expression in E. coli": "soluble"}, {"sequence": "MAGHQISFAKEVQPIIETKCLSCHSCFDAPCQLKLESAESLLRGASQEPVYSSARTTEMKPTRLGIDELTVAGWRKRGFYSVLQSDREHAQSLLKNMITLGKQYPFPPNSKLPDSIKTGFARKNQCVSEEEFPGYAHDHPFEGMPFGTSGLTDREYSLLAGWLNQGAAVTDEPVTLTRDEEQTIRTWETLFNRDDKRGRLVARWLYEHLFLAYLYFPEAGDEPRFFELLRSSTPSGEAIIPVATVSPNSDPGGPFFYRLRPISGTIVHKRRISYPLDQMKLRRISELFFSEDWPVGDLPGYDYTERSNPFVTFAAIPARARYQFMLDEAEYFVRTFIHGPVCRGQIATDVIRDHFWTLFQSPESDLFITADTYRRQAIPLLGIPGQDDDLLDAGENWLRYLKRHNDYLALRQQHYVAQQPQGASLAHIWNGDGHNENALLTIFRHHNSASVVRGLAGAVPQTIWLMDYPLLEQTYYQLVVNFNVFGNVAHQVLTRLYFDLIRNGSEQNFVRLLPAGQRKTILNDWYQDLGKLKFGIVYEDIDDRSPSAERFVTENPKLELASHMLERFQSINTLSHDPLNRCEQGNCSRIDQPHWIQQADRALSGIAAQPAASLPGISLLPEVTFVRVQHGQNERTVYTLLRDRAHSNVAFMLGEELRYQPEKDRVTVYPGITGSYPNFMFDVPAAQVGEFVAKLSKAGKIKDFEQIVETWGIRRTHPQFWEILHDITAWQKQQQPLQAGIFDINRYENFLEHHHHHH", "soluble on expression in E. coli": "not soluble"}, {"sequence": "MAGHSKWANIKHRKAAQDAQRGKIFTKLIRELVTAAKIGGGDVSANPRLRAAVDKALSNNMTRDTINRAIDRGVGGGDDTNMETKIYEGYGPGGTAVMVECLSDNANRTISQVRPSFTKCGGNLGTEGSVGYLFSKKGLILIAEADEDALTEAAIEAGADDIQPQDDGSFEIYTAWEDLGSVRDGIEAAGFKVQEAEVTMIPSTTVDLDIETAPKLLRLIDMLEDCDDVQNVYHNGEICDEVASQL", "soluble on expression in E. coli": "not soluble"}, {"sequence": "MAGISIGVGSTDYTDLVNKMVNLEGAAKTNQLATLEKTTTTRLTALGQFKSAISAFQTALTALNSNAVFMARTAKSSNEDILKASATQSAVAGTYQIQVNSLATSSKIALQAIADPANAKFNSGTLNISVGDTKLPAITVDSSNNTLAGMRDAINQAGKEAGVSATIITDNSGSRLVLSSTKTGDGKDIKVEVSDDGSGGNTSLSQLAFDPATAPKLSDGAAAGYVTKAANGEITVDGLKRSIASNSVSDVIDGVSFDVKAVTEAGKPITLTVSRDDAGVKDNVKKFVEAYNTLTKFINEQTVVTKVGEDKNPVTGALLGDASVRALVNTMRSELIASNENGSVRNLAALGITTTKDGTLEIDEKKLDKAISADFEGVASYFTGDTGLAKRLGDKMKPYTDAQGILDQRTTTLQKTLSNVDTQKADLAKRLAALQEKLTTQFNLLSAMQDEMTKRQKSITDNLASLPYGSGKKT", "soluble on expression in E. coli": "not soluble"}, {"sequence": "MAGQEDPVQREIHQDWANREYIEVITSSIKKIADFLNSFDMSCRSRLATLNEKLTALERRIEYIEARVTKGETLT", "soluble on expression in E. coli": "soluble"}, {"sequence": "MAGTVEGEKIDVGFAGKRCIHSRNCVLGDPHVFVPNAPGQWIHPDAASVEKIVAIAESCPSGAITYVRKDGGPQEQPPVVNTVRLRENGPLAVHAEIVLDGETFYRATLCRCGASENKPFCDGSHGKAGFTATGEPALKDAPALEARNGPLKVTPTTNGPLKLEGNVEIVTGTGHTIDRTQRTFLCRCGHSANKPFCDGSHKKIGFVA", "soluble on expression in E. coli": "not soluble"}]}]}
